Reference: the DeepSol protein solubility set

Experiment: soluble on expression in E. coli; label from the status in PepcDB or PDB records

Sequence | soluble on expression in E. coli
MKPLPDYNHSVVEQLNALTAAGTLQADAAQLGVAAHLDRILADLKARKPARKKSALGWMFARKAGPAAFVKGLYVHGSVGRGKTMLMDMFYEMAPVSSKRRCHFHEFMADVHNRVHTHRQKLKNGETKQADPIPPVAAQLLAEAELLCFDEFTVTDIADAMILARLFSELFANGCTLVTTSNVVPDNLYKDGLNRGLFLPFVDLLKKYVEVVTLDSPTDYRMEKLESLPVYITPLDGSADQAMDMAWRHMTAGHLVAPTEIPMKGRSILVPRRQRPGCPFFLFRPLRKAARSFRLSRHRQSFRYGLHRSHSASQCRQALEHHHHHH | soluble
MKPRETKLLGSIREAIEKTGLKDGMTISFHHHFREGDYVMNLVLAEIAAMGLKNISIAPSSIANVHEPLIEHIKNGVVTNITSSGLRDKVGAAISAGIMENPVVIRSHGGRARAVAAGDIHIDVAFLGAPSSDAYGNANGTKGKATCGSLGYAMVDAKYADQVVIITDTLVPYPNTPISIPQTDVDYVVEIDAIGDPDGIAKGATRFTKNPKELLIAEYAAKIITHSPYYKEGFSFQTGTGGSSLAVTRFMREQMLKDGIKASFALGGITNAMVELLEEGLVEKIIDVQDFDHPSAISLGENANHYEIDANMYASPLSKGAVINQLDTAILSALEVDTDFNVNVITGSDGVIRGASGGHSDTSMACKMSLVIAPLVRGRIPTIVEQVNTVVTPGTSVDVVVTEVGIAINPKRTDLIDCFKTLDVPQFTLEELKDKAYNIVGTPEPIKYGDKVVALIEYRDGSLIDVVRNVLEHHHHHH | soluble
MKPVSGSFSGYHPMATVSEQPVAKPRASESPQSESIEERPACLAPVAGAGQPLPGASSSLSAYLLLRRLDHRPVSQEGINALTPADEAVVEARNALPFGRGNVGVDAQKTDLESSIRTRSVMRLTRDAEAAGHTPMRGVDADMNWNVLVAMSGRIFGAGNCREHARIASFAYGGLAQESGRSSEEKIHLATKAGVDHVWVETDHPDADSSPMVIDPWANGSAILAEDSRFAKDRSAVTRTDTFDLSLAAEAGQIAKATAEEALAHTQGRLQQRLASERPDAVPLESGRYREEVSVLDDTFARRVGQKVNTADPRGMLNVELEAVGVAMSLGGEGVKPLTQEASQIVEKAKKFASPGGMPRDA | not soluble
MKQFKRGIERDGTGFVVLMAEEAEDMWHIYNLIRIGDIIKASTIRKVVSETSTGTTSSQRVHTMLTVSVESIDFDPGAQELHLKGRNIEENDIVKLGAYHTIDLEPNRKFTLQKTEWDSIDLERLNLALDPAQAADVAAVVLHEGLANVCLITPAMTLTRAKIDMTIPRKRKGFTSQHEKGLEKFYEAVSTAFMRHVNLQVVKCVIVASRGFVKDAFMQHLIAHADANGKKFTTEQRAKFMLTHSSSGFKHALKEVLETPQVALRLADTKAQGEVKALNQFLELMSTEPDRAFYGFNHVNRANQELAIETLLVADSLFRAQDIETRRKYVRLVESVREQNGKVHIFSSMHVSGEQLAQLTGCAAILRFPMPDLDDEPMDEN | not soluble
MKQGTMKILFFVLKTKLLKNGEAPILMRITINGQYEETRIQRSVPLKLWNAAKGCSKGKDRASNELNSYLSELATRALEKYKELILEQAISTPSLILKRVFGKDTEMRTLLGTIRQEIKEMEKVVNIDYAPVTINRYKNVLKKLENSIPTFYDKEDITFHELTPEFIKAFDLHLKTEVGLCRNTIVRYMKCFKKITNMALAKGWMKKDAFYGYKMEQDETDPVFLTYDELQTVMNKEFTIPRLVLVRDIFIFACFTGLAFADVSTLKKEDLVQDNNGDWWIRKGRIKLMHRHKASSICNIPLLPVPLAILKKYENNPVCIKKGCCLPVPCNQKMNSYLKEIADFCGIKKNITTHAGRHTFGTTITLANNVPLQDVSVMLGHASTRMTQHYARVMNASLKKSMLNVKKRLTQ | not soluble
MKQKKAWAIVKEVIEEADIVVEVVDARDPIGTRNKKLERMVLESGKKLLLVMNKADLVPKEWAEEYKRKSEIPVVFISARERKGTGILRRELKKIAKMINKERVKVALIGYPNVGKSTIINVLKGKHSVGTAPIPGYTKGKQMIRLTKKIWLLDTPGVVPIDDFDELVIKGGFPADKIREPVKPALKLIRRILETRKEALTEKFNITEFEDEEDILRKIGERRGIIREGGVVDIEETARWFLREWQTGRFTLFSTEEKREEEYIESFDEILEIIKEQNLTDPRMIIWKFGNILEDYLGAERRFGAIKVGEFMIAIATGFKKCPNAIKFVERITRKNAVAAECFGKKWKGIVAILE | soluble
MKQLNGGNVYRPTGKEKNLQAILNIHRHVIQNISPVTITAGKTLDIKIDNQSHILLITKGAIKVCRRIDSIVMGCGVSPMILGLVDAYADLYQLEENSDVFFIAETTCEYYPVPVKDFVEIADEKHLWRDISNILMYRIAFMTNRDRNLIGQDAYSQIKALLLELWSYPESSRFEINAQNFIQQRTGLSRSRIMQVLSELKAGDYIKILHGRLLELRNLPVSF | not soluble
MKQTPPLISFITICYNGLDDTCMLIESLRDTISSVSYEIIVVDNASRQDEASLIQERYPFVRTLRSEKNLGFSGGNNLGIQIAQGKYLFLINNDTYLTEDGLPALIERLESDPRIGAVSPKIRFAFPPQSIQFAGYTKLSRYTMRNKALGMGCPDDGTFDTPRPSAYLHGAALMLKREVIWKAGLMPEIYFLYYEELDWCTSMTRAGYQLWYEPRCTIFHKESQSTGRQSPLRTFYMMRNRMLYAWRNLPGMERCLAIAYQMLIVAPKDSLCFVLKGEPKLAKAVWHGVKGFWKLC | not soluble
MKQWREKSRQLAERGDLTPADWSNLELYCVNYSIYRKAVADLAARGFSIVNSQGGESRNPALSAKSDAERVMIKMASLLGFDPISRRKNPPETEEEDELDRLE | not soluble
MKRDGHTHTEFCPHGTHDDVEEMILKAIELDFDEYSIVEHAPLSSEFMKNTAGNQEAVTTASMSMSDLPYYFKKMNQMKKKYASDLLIHIGFEVDYLIGYEDFTRDFLNEYGPQTDDGVLSLHFLEGQGGFRSIDFTAEDYNEGIVQFYGGFEQAQLVYLAGVKQSIEADLGAFKPRRIGHISLCQKFQQFFGADGRDFTAEVIAEFEAILALVKKRGYELDFNTAGLFKPLCKETYPPKEIVTLARALEIPFVYGSDSHGVADIGRGYNTYCQK | not soluble
MKRDRSDYEESMKHIDIVESLMMLSRSFVVKQIDVKQSTGSKTNHNNHFECKTCNRKFDSFQALGGHRASHKKPKLIVDQEQVKHRNKENDMHKCTICDQMFGTGQALGGHMRKHRTSMITEQSIVPSVVYSRPVFNRCSSSKEILDLNLTPLENDLVLIFGKNLVPQIDLKFVN | soluble
MKRFAFFDVDDTLITVKSMFDFFRYWTLEWRRESAALEAFEREFSQLRAAGESRENLNRAYYRYFAGIRSEDIERAGAAWASAWLAHPERFFIAAPVHLLRELSADGVEPVFVSGSFDAVLRPIADHLSVTNILAAPLELRADGCYTGRIGTPQTIGAGKAVAIRNFLSEQKVRADVCLAVGDDISDLPMLQSVGTAVVVGEHPQLTEIADARSWRRLPAMAE | not soluble
MKRGEELPPLEIEVTRTLIVAGAIASRDYQDVHHDAESARRRGSPDIFMNILTTNGLVGRYITDHFGPGAVLRKVAIRLGAPNYPGDTMVLTGTVVEVEGDTATVKVIGANGIGTHVRGTVTVTVPPGSASLEHHHHHH | not soluble
MKRILLLGGITEALAIARKLGPEHIYSLAGVGRVPTDLACQLKVGGYGGAEGMAQYIRDQGVDLLLDATHPYAAQISRNAALAARIAGIPCWALRRTAWQPGPDDDWREVADWSALVTALAPFKRPLFTLGREPLQHLNEIPKHQFWTLRALDSYPGNDRCEVIGARGPFVLEDERQLFEQRNIDVLISKNSGSSSTEPKLDVARERGLPVLILKRPQLPDVDRILWSVDEVLGVLGLAETSPKPR | not soluble
MKRIPYALVDVFAPAPGAGNRVAVVLDARGMSPEEMQAVAQSLGAAEAAFLLERTGAALSVRFFAPGGEVEFSGHAAVAVGLTAARTGLVPEGTTRLYLHTPTEVLPVELVLEAGEPRKAWVRGPAPRFRDLPPYRALREVLEALGSDERYLHRGLPYGVAFTGLWSLFVPLIAPGVVDALEPEMERLKALCFRLDVATVHAYAPMGPRSFYARDFAPLLGIPEDPVTGSANAALGALLARAGVVPRREGKVLLTVYQGHHLGNPGVVEVQVEYSPTGEPYSVQIGGEAVIVQTGEV | soluble
MKRLSLREAWPYLKDLQQDPLAVLLEWGRAHPRLFLPLPRFPLALIFDPEGVEGALLAEGTTKATFQYRALSRLTGRGLLTDWGKSWKEARKALKDPFLPKSVRGYREAMEEEAWAFFGEWRGEERDLDHEMLALSLRLLGRALFGKPLSPSLAEHALKALDRIMAQTRSPLALLDLAAEARFRKDRGALYREAEALIVHPPLSHLPRERALSEAVTLLVAGHETVASALTWSFLLLSHRPDWQKRVAESEEAALAAFQEALRLYPPAWILTRRLERPLLLGEDRLPQGTTLVLSPYVTQRLYFPEGEAFQPERFLAERGTPSGRYFPFGLGQRLCLGRDFALLEGPIVLRAFFRRFRLDPLPFPRVLAQVTLRPEGGLPARPREGVRA | soluble
MKRLTIEMLPTLIGNEKLLVDCLFILFCTLKTKSLPPIRVLVRTNQSNLILDTLYEKLSKAVDKKLIFVASPEKPFDVIITDIFSEVSVKSTVPTYYVDFSASIGELAQSLENLNTQIVTKQSPRHF | not soluble
MKRTIQETPGPSSTTVPPPKKLNSQRNGSNLEPGSIYFTPIGGISVPRQESESSRSLDEILADIRPINSLHFSFMLDFEFLIGSYPPSLREYPITLVVGAPDAPDLLKCTKNQKLVTVVGASLPIPFGTHHTKMSILEDEDGRFHVIVSTANLVPDDWEFKTQQFYYNFGVKIASGTVPRSDFQDDLLEYLSMYRNQLDTWKQLLQKVDFSQISDRLIFSTPGYHTDPPTQRPGHPRLFRILSEKFPFDASYEHTERCTFVAQCSSIGSLGSAPINWFRGQFLQSLEGANPSPKQKPAKMYLVFPSVEDVRTSCQGYAGGCSVPYRNSVHARQKWLQGNMCKWRSNAKRRTNAVPHCKTYVKYDKKVAIWQLLTSANLSKAAWGEVSFNKSKNVEQLMIRSWEMGVLITDPSRFNIPFDYPLVPYSATDEPFVTDKKHEKPDILGCIWTPP | not soluble
MKSALSDLAFFGGPAAFDQPLLVGRPNRIDRARLYERLDRALDSQWLSNGGPLVREFEERVAGLAGVRHAVATCNATAGLQLLAHAAGLTGEVIMPSMTFAATPHALRWIGLTPVFADIDPDTGNLDPDQVAAAVTPRTSAVVGVHLWGRPCAADQLRKVADEHGLRLYFDAAHALGCAVDGRPAGSLGDAEVFSFHATKAVNAFEGGAVVTDDADLAARIRALHNFGFDLPGGSPAGGTNAKMSEAAAAMGLTSLDAFPEVIDRNRRNHAAYREHLADLPGVLVADHDRHGLNNHQYVIVEIDEATTGIHRDLVMEVLKAEGVHTRAYFSPGCHELEPYRGQPHAPLPHTERLAARVLSLPTGTAIGDDDIRRVADLLRLCATRGRELTARHRDTAPAPLAAPQTSTPTIGRSRGLEHHHHHH | soluble
MKSARKNKNIIIDQNEFGILSLIKEGLLGTCTHLMNEKEVNEIIKSGKFKGESFPYPLSFAPKNAEEALNDIKSGDRIDLMLDEKVVGHIDFKSQFKNNKNFSDIFSPNTCSLEDMGTTCISGKIEIYNSQIEKIKENFQQIKNNLNAQKITAIVSSFDPLHRAHERMFRWTIDKADLVVIFLVESFDVNGFEFELKEAYLKKFIQNYLPPDRIFIFPLKNINIFHAHLNPGLESIIAKSLGCTKLVVGQNHTGLGMFYDDNQPKTILDDFSKDYGIEVIVLPEFVFCDQCRMIVSTRSCPHGCHHHLHYNSQSLKDLLRAGIIPPAIFIRKEVSSVILTSLFPNRLKNMQKIYNELFPTDGILEYKNDEEFYQKLLEIHQMSYMV | not soluble
MKSAYIFFNPKSGKDEQALAKEVKSYLIEHDFQDDYVRIITPSSVEEAVALAKKASEDHIDLVIPLGGDGTINKICGGVYAGGAYPTIGLVPAGTVNNFSKALNIPQERNLALENLLNGHVKSVDICKVNDDY | not soluble
